The text below walks through data of publication PMC5028935, “De novo synthesis of fatty acids is regulated by FapR protein in Exiguobacterium antarcticum B7, a psychrotrophic bacterium isolated from Antarctica”.

This data set deals with T1, FapR (Exiguobacterium antarcticum B7, UniProt A0ABT6QZ49 1-189).
T1 sequence: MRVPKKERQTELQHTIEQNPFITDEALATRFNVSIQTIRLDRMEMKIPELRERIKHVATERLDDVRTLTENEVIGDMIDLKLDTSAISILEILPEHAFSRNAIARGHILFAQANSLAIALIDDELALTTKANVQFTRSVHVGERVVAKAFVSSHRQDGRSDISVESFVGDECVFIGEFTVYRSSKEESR
In words: EMSA; 2, 2.8, 3.8 and 4.5 uM protein; no shift; 10 mM Tris-HCl (pH not given), 0.2 mM DTT, 0.2 mM EDTA, 0.25 mM KCl (so in the source), 1 h on ice; 7.5% native PAGE, SYBR Safe stain. Conditions: protein: recombinant; (pET-46 Ek/LIC vector adds a His tag); chain copies: 2. A general note: Mobility shift assays separate free from complexed probe on a gel.

B1: fapR-plsX-fabD-fabG promoter, synthesized up to the palindrome (dsDNA)
DNA 1: TACTTGAAAGTGAACAACAAGGGATATATACTACTATTAGTACCAGGTAATAA
DNA 2: TTATTACCTGGTACTAATAGTAGTATATATCCCTTGTTGTTCACTTTCAAGTA
Consider B1, for which the binding result is on record as “no binding”.
